In patent US20190248902A1 (published 2019):
Substitutions are numbered along the chain they refer to.

T1: Soluble ASGR-1 (human, UniProt P07306 62-291, biotinylated)
T1 construct: Soluble recombinant protein; also called recombinant, soluble ASGR-1 biotinylated protein
T1 sequence: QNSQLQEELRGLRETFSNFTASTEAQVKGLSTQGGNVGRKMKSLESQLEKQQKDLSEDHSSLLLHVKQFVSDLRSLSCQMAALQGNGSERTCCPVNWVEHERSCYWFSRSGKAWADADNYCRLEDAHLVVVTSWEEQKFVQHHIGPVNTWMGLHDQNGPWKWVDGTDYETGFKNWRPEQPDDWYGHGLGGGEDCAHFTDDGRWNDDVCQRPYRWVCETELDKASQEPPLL

B1: 7E11 (antibody, V domains shown)
VH: QVQLVESGGGVVQPGRSLRLSCAASGFTFSSFGMHWVRQAPGKGLEWVAIIWHDGSNKYYADSVKGRFTISRDNSNNTLYLQMSSLRAEDTAVYYCARDLSMGGMDVWGQGTTVTVSS
VL: DIQMTQSPSSLSASVGDRVTIACRASQNIISYLNWYQQKPGKAPKFLIYTASSLQSGVPSRFSGSGSGTDFTLTISSLQPEDFAIYYCQQTYSTPLTFGGGTKVEIK
notes: Tested as hybridoma supernatant at normalized concentration
B2: 22G5 (antibody, V domains shown)
VH: EVQLLESGGGLVQPGGSLRLSCAASGFTFSSYAMNWVRQAPGMGLEWVSVISRSGGYTYYADSVKGRFTISRDNSKNTLYLQMNSLRAEDTAVYYCASRLAVAGSEAFDIWGQGTLVTVSS
VL: DIQMTQSPSSLSASVGDRVTITCRASQNISSYLNWYQQKQGKAPKLLIYAASSLQNGVPSRFSGRGSGTDFTLTISSLQPEDFATYYCQQSYRTPLFTFGPGTKVDFK
notes: as for B1
B3: 7G4 (antibody, V domains shown)
VH: QVQLVESGGGVVQPGRSLRLSCAASGFTFNNYVMHWVRQAPGKGLEWVAVIWYDGSNKYYADSVKGRFTISRDNSKNTLYLQMTSLRAEDTAVYYCAREKYSSNWYDYGMDVWGQGTTVTVSS
VL: DIQMTQSPSSLSASVGDRVTITCRASQGIRNDLGWYQQRPGKAPKRLIYAASSLQSGVPSRFSGSGSGTEFTLTISSLQPEDSATYYCLHQYSYPRTFGQGTKVEIK
notes: as for B1
B4: 5E5 (antibody, V domains shown)
VH: B3 VH with N30S, T84N, A97T, K100V, N104G
VL: B3 VL with R39K, S83F, H90Q, Q91H, I106V
notes: as for B1
B5: 54E9 (antibody, V domains shown)
VH: QVQLVQSGAEVKKPGASVKVSCKASGYTFNSYGISWVRLAPGQGLEWMGWISAYNGNTKNAQKLQGRVTMTTDTSTSTAYMELRSLRSDDTAVYYCARHDFWSGYYKGMDVWGQGTTVTVSS
VL: not shown
notes: as for B1
B6: 6G7 (antibody, V domains shown)
VH: QVQLVESGGGVVQPGRSLRLSCAASGFTFSSYGMHWVRQTPGKGLEWVAIISYVGKNKYYADSVKGRFTISRDNSKNTLYLQMNSLRAEDTAVYYCARRGNSYGGYGMDVWGQGTTVTVSS
VL: DIQMTQSPSSRSASVGDRVTITCQASQDISNYLNWCQQKPGKALKLLIYDASTLETGVPSRFSGSGSGTDFTFTISSVQPEDIATYYCQQYDNVPITFGQGTRLEIK
notes: as for B1
B7: 176H4 (antibody, V domains shown)
VH: QVQLVESGGGVVQPGRSLRLSCAASGFTFSSYGMHWVRQAPGKGLEWVAIIWYDGSYKYYADSVKGRFTISRDNSKNTLYLQMSSLRAEDTAVYYCARDAHDFWSGYFAYWGQGALVTVSS
VL: DIVMTQTPLSLSVTPGQPASISCKSSQSLLHGDGKTYLYWYLQKPGQPPQLLIYEVSNRFSGVPDRFSGSGSGTDFTLKISRVEAEDVGIYYCMQSIQIPWTFGQGTRVEIK
notes: as for B1
B8: 194C10 (antibody, V domains shown)
VH: QVQLQQWGAGLLKPSETLSLTCAVSGGSFRYYYWSWIRQPPGKGLEWFGEINHSGSTNYNPSLKSRVTISIDTSKNQFSLKLRSVTAADTAVYYCARDYGAFDIWGQGTMVTVSS
VL: EIVLTQSPGTLSLSPGERATLSCRASPSVNSGYLAWYQQKPGQTPRLLIFGASSRATGIPDRFSASGSGADFTLTISRLEPEDFAVYFCQQYESSPWTFGQGTKVEIK
notes: as for B1
B9: 12D2 (antibody, V domains shown)
VH: EVQLVESGGGLVKPGGSLRLSCAASGFTFSSYSMNWVRQAPGKGLEWVSSISSSSSYIYYADSVKGRFTISRDNAKNSLYLQMNSLRAEDTAVYYCARLGDYWGQGTLVAVSS
VL: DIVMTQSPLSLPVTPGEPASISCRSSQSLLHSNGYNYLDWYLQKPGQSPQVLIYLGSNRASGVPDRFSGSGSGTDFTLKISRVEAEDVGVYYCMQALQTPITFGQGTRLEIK
notes: as for B1
B10: 25A4 (antibody, V domains shown)
VH: QVLLVQSGAEVKRPGASVKVSCKASGYTFTNYDINWVRQATGQGLEWMGWMYPNSGNTGYAQKFQGRVTMTRNTSISTAYMELSSLRSEDTAVYYCASSSGWYYFDYWGQGTLVTVSS
VL: DIVMTQFPDSLAVSLGERATIKCKSSQSVLYSSHNNNYLAWYQQKPGQPPKLLLYWASTRESGVPDRFSGSGSGTEFTLTISSLEAEDVAVYYCQQYYSTPPTFGQGTKVEIK
notes: as for B1
B11: 48B12 (antibody, V domains shown)
VH: EVQLLESGGGLVQPGGSLRLSCAASGFTFSSYAMNWVRQAPGKGLEWVSAISGRGGNTFYADSVKGRFTISRDNSKNTLYLQMNSLRAEDTAVYYCAKRETYNWNYEGFDYWGQGTLVTVSS
VL: SYELTQPPSVSVSPGQTARITCSGDALPKKYAYWYQQKSGQAPVLVIYEDSKRPSGIPERFSGSSSGTMATLTISGAQVEDEADYYCNSTDSSGNHVVFGGGTKLTVL
notes: as for B1
B12: 26C4 (antibody, V domains shown)
VH: B10 VH with L3Q, R13K, T41S, Y52N, K63R, S77N
VL: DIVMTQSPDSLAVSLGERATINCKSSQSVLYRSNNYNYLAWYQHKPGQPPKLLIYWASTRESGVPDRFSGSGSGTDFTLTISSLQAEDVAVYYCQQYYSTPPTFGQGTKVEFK
notes: as for B1
B13: 29H8 (antibody, V domains shown)
VH: B10 VH with L3Q, K12Q, R13K, Y52N, K63R, T78A
VL: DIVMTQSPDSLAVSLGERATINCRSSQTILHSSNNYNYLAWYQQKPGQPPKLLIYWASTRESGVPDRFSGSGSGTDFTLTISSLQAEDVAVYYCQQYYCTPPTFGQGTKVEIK
notes: as for B1
B14: 184E7 (antibody, V domains shown)
VH: QVQLVQSGAEVKTPGASVKVSCRASGYTFTSYNMHWVRQVPGQGLEWMGWINPNNGGSNYTQKFQGRVTMTRDTSISTAYMELSRLRSDDTAVYYCARKFGDWGQGTLVTVSS
VL: DIQMTQSPSSRSASIGERVTITCRASQGISNYLAWIQQKPGTAPKSLIYAASSLQSGVSSRFSGSGFGTDFTITISSVQREDFATYYCQQYNGYPFTFGHGTKVDIK
notes: as for B1
B15: 194A4 (antibody, V domains shown)
VH: QVQLVQSGTEVKKPGASLKVSCKASGYTFTVYYLNWVRQAPGQGLEWMGWINPNSGGTNYAQKFQGRVTMTRDTSISTAYMELSRLRSDDTAVYYCARGYDILTGWGQGTLVTVSS
VL: EIVLTQSPGTLSLSPGERATLSCRASRGVSNIYLAWYQQKPGQAPRLLIYGASNRATGIPDRFSGSGSGTDFTLTISRLEPEDFAVYYCQHNDYSMFTFGPGTKVDIK
notes: as for B1
B16: 4A2 (antibody, V domains shown)
VH: B10 VH with L3Q, A9T, R13K, Y52H, M70L
VL: DIVMTQSPDSLAVSLGERATINCKSSQSILHSSNNNNYLAWFQQKPGQPPKLLLYWASTRESGVPDRFSGSGSGTDFTLTISSLQPEDVAVYYCQQYYNTPVTFGPGTKVGIK
notes: as for B1
B17: 4B1 (antibody, V domains shown)
VH: QVQLQESGPGLVKPSETLSLTCSVSGDSISSYSWSWIRQPAGKGLEWIGRIYTSGSTNYIPSLKSRITMSVDTSKKQFSLKLSSVTAADTAVYYCARDLKSSGCLFFDYWGQGTLVTVSS
VL: DIQMTQSPSSLSASVGDRVTITCRASHTIRTYLNWYQQKPGKAPKLLIYAASSLQSGVPSRINGSGSGTDFTLTITNLQPEDFATYYCQQSYNISFTFGPGTKVDIK
notes: as for B1
B18: 4H6 (antibody, V domains shown)
VH: QVQLVQSGAEVKKPGASVKVSCKASGYTFTDYYLHWVRQAPGQGLEWMGWIHPNSGGTNYAQKFQGRVTMTRDTSISTAYMGLSSLRSDDTAVYYCARDGTSSFDYWGQGTLVTVSS
VL: DIQMTQSPSSVSASVGDRVTITCRASQGISRWLAWYQQKPGKAPKLLIYGASSLQSGVPSRFSGSGSGTDFTLTISSLQPEDFAIYYCQQANSFPFTFGPGTKVDIK
notes: as for B1
B19: 72G9 (antibody, V domains shown)
VH: EVQLVESGGGLVKPGGSLRLSCAASGFTFSSYSMNWVRQAPGKGLEWVSSISGSSSYIYYADSVKGRFTISRDNAKNSLYLQMNSLRAEDTAVYFCARGGSRGFDPWGQGTLVTVSS
VL: B18 VL with V11L, G28S, S30T, R31S, W32Y, A34N, G50T, I85T, A91S, N92H
notes: as for B1
B20: 56E5 (antibody, V domains shown)
VH: QVQLVQSGAEVKKPGASVKVSCQASGYTFTGYHMHWVRQAPGQGLEWMGWINPNNNATNYAQKFQGRVTMTRDTSISTAYMELRRLRSDDTAVYHCARDGTSSFDYWGQGTLVTVSS
VL: B18 VL with S30R, R31K, G50A, I85T
notes: as for B1

target: T1, Soluble ASGR-1; assay: limited antigen binding assay; biotinylated soluble ASGR-1 coated at 2.5 ng/mL on LumAvidin beads, FACS
Protocol: To assess antibody and antigen interaction strength (relative binding affinity), ASGR-1 specific, ligand competing antibody hybridoma supernatants were tested in a limiting antigen binding assay. Titrated amounts of recombinant, soluble ASGR-1 biotinylated protein was incubated with streptavidin-coated LumAvidin Beads® for 45 minutes in the dark at room temperature and washed twice. Beads were resuspeneded in FACS buffer containing Stabilguard® and 0.05% Sodium Azide. Antigen-bound beads were then incubated with normalized hybridoma supernatant sample or controls for 18 hours in the dark at room temperature, washed twice, incubated with Alexa Fluor® 488 IgG fragment-specific detection antibody for 15 minutes in the dark at room temperature, washed once and finally resuspended in FACS buffer. Samples were analyzed using an Intellicyt iQue™ Screener Platform. FACS buffer supplemented with 1 mM Calcium Chloride was used in all steps. […] In this assay method, the antibody binding signal correlates with antibody affinity. Antibody binding data for a representative antigen coating concentration that fell in the linear range of the instrument signal detection is shown in Table 7.2. The degree of antibody binding to the target (ASGR-1) correlates with the measured fluorescent intensity and thus allows a relative comparison of affinities across the panel.

In order of rising “FACS Geomean” value:
1. B9  105 FACS Geomean
2. B2  1080 FACS Geomean
3. B6  2290 FACS Geomean
4. B18  2990 FACS Geomean
5. B4  3280 FACS Geomean
6. B1  4660 FACS Geomean
7. B5  6490 FACS Geomean
8. B3  6800 FACS Geomean
9. B17  10100 FACS Geomean
10. B12  12000 FACS Geomean
11. B13  12200 FACS Geomean
12. B16  16600 FACS Geomean
13. B10  18000 FACS Geomean
14. B8  21900 FACS Geomean
15. B20  22600 FACS Geomean
16. B11  27000 FACS Geomean
17. B7  29400 FACS Geomean
18. B19  34000 FACS Geomean
19. B15  38900 FACS Geomean
20. B14  40200 FACS Geomean
